Laboratory results published in patent US20260209345A1 (IOMX THERAPEUTICS, published 2026).

Assays:
recombinant LILRA3 = biological target: T1, recombinant LILRA3 (human, UniProt Q8N6C8 24-439); assay: BLI, IgG on AHC sensor, ECD in solution
T1 construct: whole entry named; also called LILRA3 ECD; LILA3
Experimental: (§1) Briefly, IgGs were captured on anti-human capture (AHC) biosensors (Sartorius). […] Subsequently, the sensors were dipped into 1× Kinetics Buffer to measure the dissociation over 420 s. All sensorgrams were double referenced against 1× Kinetics Buffer and unloaded […] sensors to subtract sensor drifts and potential reference binding of the analytes. The affinities were determined by applying a 1:1 binding model.

recombinant LILRA1 ECD = biological target: T2, recombinant LILRA1 ECD (human, UniProt O75019 17-461); assay: BLI, IgG on AHC sensor, ECD in solution
T2 construct: whole canonical entry named; also called LILA1
Experimental: as §1

recombinant LILRB1 ECD [1] = biological target: T3, recombinant LILRB1 ECD (human, UniProt Q8NHL6 24-461); assay: BLI, IgG on AHC sensor, ECD in solution
T3 construct: also called biotinylated LILRB1 ECD
Experimental: as §1

recombinant LILRB2 ECD [2] = biological target: T4, recombinant LILRB2 ECD (human, UniProt Q8N423 22-460); assay: BLI, IgG on AHC sensor, ECD in solution
T4 construct: also called biotinylated LILRB2 ECD
Experimental: as §1

recombinant LILRB2 ECD [3] = biological target: T4, recombinant LILRB2 ECD; assay: ELISA, LILRB2 ECD binding to HLA-G-Fc
Experimental: (§2) HLA-G inhibition was tested by ELISA. 384-well Maxisorp plates were coated with 2 ug/mL B2M-HLA-G fused to a mouse IgG2a-Fc and the plates were blocked with 2% (w/v) BSA in PBST. […] 15 ul of the antibody dilution series (300 nM to 0.3 nM) were mixed with 30 μL of the pre-mixed LILRB/Avidin-HRP solution (final antibody concentration 100 nM to 0.1 nM) and incubated for 1 h at room temperature. After three wash cycles with PBST, 20 μL of the antibody/LILRB/Avidin-HRP solution was transferred to the plate with immobilized HLA-G and incubated for 15 min at room temperature. After three wash cycles with PBST, residual LILRB binding to HLA-G was detected by developing the ELISA with TMB substrate.

recombinant LILRB1 ECD [4] = biological target: T3, recombinant LILRB1 ECD; assay: ELISA, LILRB1 ECD binding to HLA-G-Fc
Experimental: as §2

T2 sequence (O75019 17-461 limits assumed): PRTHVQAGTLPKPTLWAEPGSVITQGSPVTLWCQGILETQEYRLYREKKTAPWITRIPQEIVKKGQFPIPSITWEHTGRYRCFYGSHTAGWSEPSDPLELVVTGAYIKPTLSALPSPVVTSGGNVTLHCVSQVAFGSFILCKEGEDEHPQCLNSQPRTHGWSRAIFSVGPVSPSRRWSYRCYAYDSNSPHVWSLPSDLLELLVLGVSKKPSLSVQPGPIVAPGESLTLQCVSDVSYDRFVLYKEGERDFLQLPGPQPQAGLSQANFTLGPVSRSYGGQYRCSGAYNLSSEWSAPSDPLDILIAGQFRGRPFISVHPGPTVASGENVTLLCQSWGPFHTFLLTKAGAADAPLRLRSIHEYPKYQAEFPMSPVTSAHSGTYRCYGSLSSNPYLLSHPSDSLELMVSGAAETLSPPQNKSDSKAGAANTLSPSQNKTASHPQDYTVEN
T1 sequence (Q8N6C8 24-439 limits assumed): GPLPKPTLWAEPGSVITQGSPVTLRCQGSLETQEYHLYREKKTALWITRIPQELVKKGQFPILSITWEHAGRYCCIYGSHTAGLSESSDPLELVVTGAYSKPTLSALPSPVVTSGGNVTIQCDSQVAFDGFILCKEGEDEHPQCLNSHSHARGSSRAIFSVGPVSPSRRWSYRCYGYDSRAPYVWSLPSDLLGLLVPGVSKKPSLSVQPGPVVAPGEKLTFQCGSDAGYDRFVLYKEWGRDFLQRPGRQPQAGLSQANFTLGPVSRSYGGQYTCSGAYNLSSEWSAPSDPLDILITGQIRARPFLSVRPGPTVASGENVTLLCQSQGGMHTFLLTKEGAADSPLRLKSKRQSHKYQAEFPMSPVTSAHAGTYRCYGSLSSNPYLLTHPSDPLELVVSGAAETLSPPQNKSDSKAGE
T4 sequence (Q8N423 22-460 limits assumed): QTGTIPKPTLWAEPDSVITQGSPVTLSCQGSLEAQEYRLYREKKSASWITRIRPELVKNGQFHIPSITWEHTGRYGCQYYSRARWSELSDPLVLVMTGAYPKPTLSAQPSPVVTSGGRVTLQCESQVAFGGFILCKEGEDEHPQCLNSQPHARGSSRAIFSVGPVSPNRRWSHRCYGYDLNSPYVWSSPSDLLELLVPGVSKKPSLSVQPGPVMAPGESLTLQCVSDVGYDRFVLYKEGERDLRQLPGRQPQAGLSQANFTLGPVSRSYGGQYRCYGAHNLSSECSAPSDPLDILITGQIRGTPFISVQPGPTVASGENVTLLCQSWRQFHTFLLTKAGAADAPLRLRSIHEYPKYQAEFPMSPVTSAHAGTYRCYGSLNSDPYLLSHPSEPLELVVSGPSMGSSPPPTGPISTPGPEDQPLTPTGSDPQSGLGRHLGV
T3 sequence (Q8NHL6 24-461 limits assumed): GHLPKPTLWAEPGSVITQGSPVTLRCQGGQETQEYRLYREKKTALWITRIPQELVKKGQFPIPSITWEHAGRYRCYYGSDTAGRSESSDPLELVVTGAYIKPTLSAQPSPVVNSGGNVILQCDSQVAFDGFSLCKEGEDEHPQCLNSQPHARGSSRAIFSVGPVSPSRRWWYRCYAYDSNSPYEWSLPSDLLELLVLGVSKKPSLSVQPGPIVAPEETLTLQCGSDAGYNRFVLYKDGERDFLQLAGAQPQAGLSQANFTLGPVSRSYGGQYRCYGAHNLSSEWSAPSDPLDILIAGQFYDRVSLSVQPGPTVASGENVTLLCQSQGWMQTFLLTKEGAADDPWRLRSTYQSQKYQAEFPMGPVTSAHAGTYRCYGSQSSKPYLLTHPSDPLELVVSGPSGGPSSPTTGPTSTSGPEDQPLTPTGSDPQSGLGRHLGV

| Kd (recombinant LILRA3) [nM] | Kd (recombinant LILRA1 ECD) [nM] | Kd (recombinant LILRB1 ECD [1]) [nM] | Kd (recombinant LILRB2 ECD [2]) [nM] | IC50 (recombinant LILRB2 ECD [3]) [nM] | IC50 (recombinant LILRB1 ECD [4]) [nM] | Binder |
| --- | --- | --- | --- | --- | --- | --- |
| 157 | 541 | 4.9 | 3.1 | 5 | 4.2 | A-021 (antibody, V domains shown, tested as IgG) VH: QVQLVQSGAEVKKPGSSVKVSCKASGGSITSYAFAWVRQAPGQGLEWMGGIIPGFYAANYAQKFQGRVTITADESTSTAYMELSSLRSEDTAVYYCAKDLGTYSSGWPYYYGMDVWGQGTTVTVSS VL: SYELTQPPSVSVSPGQTASITCSGDKLGDKYASWYQQKPGQSPVLVIYQDSKRPSGIPERFSGSNSGNTATLTISGTQAEDEADYYCQSTTHTSFVFGGGTKLTVL |
| 678 | 2690 | 16.4 | 82.7 | 5.6 | 3.3 | A-034 (antibody, V domains shown, tested as IgG) VH: QVQLVQSGAEVKKPGSSVKVSCKASGGTFSSYAISWVRQAPGQGLEWMGGIIPIFGTANYAQKFQGRVTITADESTSTAYMELSSLRSEDTAVYYCAKDLGTYSSGWPYYYGMDVWGQGTTVTVSS VL: SYELTQPPSVSVSPGQTASITCSGDKLGDKYASWYQQKPGQSPVLVIYQDSKRPSGIPERFSGSNSGNTATLTISGTQAEDEADYYCQLYGHTITVFGGGTKLTVL |
| 1250 | 734 | 12.9 | 30.8 | 3.5 | 1.7 | A-035 (antibody, V domains shown, tested as IgG) VH: QVQLVQSGAEVKKPGSSVKVSCKASGGTFSSYAISWVRQAPGQGLEWMGGIIPIFGTANYAQKFQGRVTITADESTSTAYMELSSLRSEDTAVYYCAKDLGTYSSGWPYYYGMDVWGQGTTVTVSS VL: SYELTQPPSVSVSPGQTASITCSGDKLGDKYASWYQQKPGQSPVLVIYQDSKRPSGIPERFSGSNSGNTATLTISGTQAEDEADYYCQLSHGTLLVFGGGTKLTVL |
| 519 | 342 | 99.4 | 73.1 | 65.8 | 16.5 | A-003 (antibody, V domains shown, tested as IgG; also called parental antibody A-003) VH: QVQLVQSGAEVKKPGSSVKVSCKASGGTFSSYAISWVRQAPGQGLEWMGGIIPIFGTANYAQKFQGRVTITADESTSTAYMELSSLRSEDTAVYYCAKGPPVGSSSWYTDWYFDLWGRGTLVTVSS VL: SYELTQPPSVSVSPGQTASITCSGDKLGDKYASWYQQKPGQSPVLVIYQDSKRPSGIPERFSGSNSGNTATLTISGTQAEDEADYYCLSYGAHSHGVVFGGGTKLTVL |
| 230 | 82.4 | 3.1 | 4.3 | 6.8 | 7.5 | A-023 (antibody, V domains shown, tested as IgG) VH: QVQLVQSGAEVKKPGSSVKVSCKASGYTFQQYAMSWVRQAPGQGLEWIGGIIPQFSTSVYAQKFQGRVTITADESTSTAYMELSSLRSEDTAVYYCAKGPPVGSSSWYTDWYFDLWGRGTLVTVSS VL: SYELTQPPSVSVSPGQTASITCSGDKLGDKYASWYQQKPGQSPVLVIYQDSKRPSGIPERFSGSNSGNTATLTISGTQAEDEADYYCLSYGAHSHGVVFGGGTKLTVL |
| 124 | 33.9 | 0.5 | 1.9 | 5.6 | 7 | A-027 (antibody, V domains shown, tested as IgG) VH: QVQLVQSGAEVKKPGSSVKVSCKASGGSFTGYAISWVRQAPGQGLEWMGGILPSFYTAVYAQKFQGRVTITADESTSTAYMELSSLRSEDTAVYYCAKGPPVGSSSWYTDWYFDLWGRGTLVTVSS VL: SYELTQPPSVSVSPGQTASITCSGDKLGDKYASWYQQKPGQSPVLVIYQDSKRPSGIPERFSGSNSGNTATLTISGTQAEDEADYYCLSYGAHSHGVVFGGGTKLTVL |
| 187 | 48.3 | 1.8 | 1.6 | 3.9 | 3.9 | A-028 (antibody, V domains shown, tested as IgG) VH: QVQLVQSGAEVKKPGSSVKVSCKASGYSFSEHAMSWVRQAPGQGLEWMGGIIPKFSTSVFAQKFQGRVTITADESTSTAYMELSSLRSEDTAVYYCAKGPPVGSSSWYTDWYFDLWGRGTLVTVSS VL: SYELTQPPSVSVSPGQTASITCSGDKLGDKYASWYQQKPGQSPVLVIYQDSKRPSGIPERFSGSNSGNTATLTISGTQAEDEADYYCLSYGAHSHGVVFGGGTKLTVL |
| 253 | 79.5 | 2.2 | 2.5 | 7.6 | 10.5 | A-032 (antibody, V domains shown, tested as IgG) VH: QVQLVQSGAEVKKPGSSVKVSCKASGGTFQSYAFSWVRQAPGQGLEWMGGIVPQYSTAVYAQKFQGRVTITADESTSTAYMELSSLRSEDTAVYYCAKGPPVGSSSWYTDWYFDLWGRGTLVTVSS VL: SYELTQPPSVSVSPGQTASITCSGDKLGDKYASWYQQKPGQSPVLVIYQDSKRPSGIPERFSGSNSGNTATLTISGTQAEDEADYYCLSYGAHSHGVVFGGGTKLTVL |
| 50.1 | 11.6 | 0.8 | 0.9 | 4.2 | 4.1 | A-031 (antibody, V domains shown, tested as IgG) VH: QVQLVQSGAEVKKPGSSVKVSCKASGYTFTKTAMSWVRQAPGQGLEWMGGIIPSYYTAVYAQKFQGRVTITADESTSTAYMELSSLRSEDTAVYYCAKGPPVGSSSWYTDWYFDLWGRGTLVTVSS VL: SYELTQPPSVSVSPGQTASITCSGDKLGDKYASWYQQKPGQSPVLVIYQDSKRPSGIPERFSGSNSGNTATLTISGTQAEDEADYYCLSYGAHSHGVVFGGGTKLTVL |
| 166 | 71.3 | 1.8 | 4.2 | 4.3 | 5.1 | A-025 (antibody, V domains shown, tested as IgG) VH: QVQLVQSGAEVKKPGSSVKVSCKASGYTFSKSAMSWVRQAPGQGLEWMGGIVPKFHTSVYAQKFQGRVTITADESTSTAYMELSSLRSEDTAVYYCAKGPPVGSSSWYTDWYFDLWGRGTLVTVSS VL: SYELTQPPSVSVSPGQTASITCSGDKLGDKYASWYQQKPGQSPVLVIYQDSKRPSGIPERFSGSNSGNTATLTISGTQAEDEADYYCLSYGAHSHGVVFGGGTKLTVL |
| 124 | 63.8 | 3.2 | 3.2 | 4.4 | 6.7 | A-030 (antibody, V domains shown, tested as IgG) VH: QVQLVQSGAEVKKPGSSVKVSCKASGGSFQSYAFSWVRQAPGQGLEWMGGIVPIYYTATYAQKFQGRVTITADESTSTAYMELSSLRSEDTAVYYCAKGPPVGSSSWYTDWYFDLWGRGTLVTVSS VL: SYELTQPPSVSVSPGQTASITCSGDKLGDKYASWYQQKPGQSPVLVIYQDSKRPSGIPERFSGSNSGNTATLTISGTQAEDEADYYCLSYGAHSHGVVFGGGTKLTVL |
| 79.3 | 120 | 4.4 | 3.9 | 5.3 | 6.1 | A-026 (antibody, V domains shown, tested as IgG) VH: QVQLVQSGAEVKKPGSSVKVSCKASGYTFTSHGMSWVRQAPGQGLEWMGGILPIFHTATYAQKFQGRVTITADESTSTAYMELSSLRSEDTAVYYCAKGPPVGSSSWYTDWYFDLWGRGTLVTVSS VL: SYELTQPPSVSVSPGQTASITCSGDKLGDKYASWYQQKPGQSPVLVIYQDSKRPSGIPERFSGSNSGNTATLTISGTQAEDEADYYCLSYGAHSHGVVFGGGTKLTVL |
| 123 | 29.5 | 1.9 | 2.7 | 5.6 | 6.5 | A-029 (antibody, V domains shown, tested as IgG) VH: QVQLVQSGAEVKKPGSSVKVSCKASGYTFSIYAMSWVRQAPGQGLEWMGGIIPSFRTAVYAQKFQGRVTITADESTSTAYMELSSLRSEDTAVYYCAKGPPVGSSSWYTDWYFDLWGRGTLVTVSS VL: SYELTQPPSVSVSPGQTASITCSGDKLGDKYASWYQQKPGQSPVLVIYQDSKRPSGIPERFSGSNSGNTATLTISGTQAEDEADYYCLSYGAHSHGVVFGGGTKLTVL |
| 64.8 | 31.8 | 1.2 | 3.6 | 3.3 | 3.9 | A-024 (antibody, V domains shown, tested as IgG) VH: QVQLVQSGAEVKKPGSSVKVSCKASGYTFTGSAMSWVRQAPGQGLEWMGGILPIFGTSVYAQKFQGRVTITADESTSTAYMELSSLRSEDTAVYYCAKGPPVGSSSWYTDWYFDLWGRGTLVTVSS VL: SYELTQPPSVSVSPGQTASITCSGDKLGDKYASWYQQKPGQSPVLVIYQDSKRPSGIPERFSGSNSGNTATLTISGTQAEDEADYYCLSYGAHSHGVVFGGGTKLTVL |
